In PMC6990103 (2019):

Tests used:
Assay in all cases: ELISA
[1] = molecular target: recombinant EBOV Kikwit 1995 NP (Zaire ebolavirus (EBOV) Kikwit 1995, UniProt O72142 1-739)
[2] = molecular target: nluc-NP612 fusion protein, EBOV (Zaire ebolavirus (EBOV), UniProt O72142 612-739)
[3] = molecular target: nluc-NP612 fusion protein, SUDV (Sudan ebolavirus (SUDV), UniProt Q9QP77 612-738)
[4] = molecular target: recombinant SUDV Boniface 1976 NP (Sudan ebolavirus (SUDV) Boniface 1976, UniProt Q9QP77 1-738)

Binder | EC50 [1] | EC50 [2] | other results
sdAb ZC-gluc fusion (glucibody) (VHH) VHH: KVQLQQSGGGSVTPGGSLRLSCAASGSISDFAAMAWYRQAPGKERDWVGTIFSAGALLYAEPVKGRFTISRDNAKNTVYLQMNSLKPEDTAVYYCRLYAEAIYWGQGTQVTVSS | 13 nM |  | 
sdAb ZC, biotinylated (from pecan126) (VHH, biotin (singly biotinylated)) VHH: KVQLQQSGGGSVTPGGSLRLSCAASGSISDFAAMAWYRQAPGKERDWVGTIFSAGALLYAEPVKGRFTISRDNAKNTVYLQMNSLKPEDTAVYYCRLYAEAIYWGQGTQVTVSS |  | 186 nM | 
sdAb SB, biotinylated (from pecan126) (VHH, biotin (singly biotinylated)) VHH: QVKLQQSGGGSVQEGGSLRLSCASSGAFFRAGPMGWYRRAPGNERELVAGISRNGRTIYAPSLKDRFTISRDDDNNILYLQMSDLTPGDTAVYYCNLNVRTAVAGRNDYWGQGTQVTVSS |  |  | EC50 [3]: 635 nM
sdAb SB-gluc fusion (glucibody) (VHH) VHH: QVKLQQSGGGSVQEGGSLRLSCASSGAFFRAGPMGWYRRAPGNERELVAGISRNGRTIYAPSLKDRFTISRDDDNNILYLQMSDLTPGDTAVYYCNLNVRTAVAGRNDYWGQGTQVTVSS |  |  | EC50 [4]: 37 nM
sdAb ZE-gluc fusion (glucibody) (VHH) VHH: QVQLQESGGGLVQPGGSLRLSCTASGFTLAEYGVGWFRQAPGKERELVALIAVGGTTHSIDSVKGRFTISRDNMKNTVYLQMNSLNVEDTAVYYCNAYSSAYDRNYWGQGTQVTVSS | 31 nM |  | 
sdAb ZE, biotinylated (from pecan126) (VHH, biotin (singly biotinylated)) VHH: QVQLQESGGGLVQPGGSLRLSCTASGFTLAEYGVGWFRQAPGKERELVALIAVGGTTHSIDSVKGRFTISRDNMKNTVYLQMNSLNVEDTAVYYCNAYSSAYDRNYWGQGTQVTVSS |  | 1030 nM | 
